Values of other authors in US20050118241A1, “Platform for transdermal formulations (ptf)” (priority 2002, published 2005).

Details: extensively degraded in liver, kidney and plasma

glucagon
half-life: 3 to 6 min
